Laboratory results: US20200147235A1 (AbbVie / Abbott, published 2020)

Legend:
[1] = target: T1, Human CD98 ECD with C-terminal His-tag (human, UniProt P08195 105-529); test: SPR Biacore, anti-Fc capture of mAb, CD98 ECD analyte
T1 construct: also called huCD98 ECD; recombinant human CD98 extracellular domain
T1 sequence: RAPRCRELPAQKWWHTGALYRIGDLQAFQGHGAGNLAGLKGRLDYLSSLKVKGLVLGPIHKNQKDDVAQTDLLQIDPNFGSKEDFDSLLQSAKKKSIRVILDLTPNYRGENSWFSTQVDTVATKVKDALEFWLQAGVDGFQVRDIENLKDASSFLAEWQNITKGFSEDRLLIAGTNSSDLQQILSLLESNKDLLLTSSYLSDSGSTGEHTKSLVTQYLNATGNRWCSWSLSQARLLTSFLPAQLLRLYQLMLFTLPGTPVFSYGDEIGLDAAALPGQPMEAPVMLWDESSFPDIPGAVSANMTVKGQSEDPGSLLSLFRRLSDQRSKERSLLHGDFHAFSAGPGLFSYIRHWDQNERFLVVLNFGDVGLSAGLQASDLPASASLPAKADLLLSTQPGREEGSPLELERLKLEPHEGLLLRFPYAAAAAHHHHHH
Experimental: (§1) The binding kinetics of these purified mouse and rat monoclonal anti-CD98 antibodies for purified recombinant CD98 protein (extracellular domain. ECD) were determined by surface plasmon resonance-based measurements made on Biacore T100/T200 instruments (GE Healthcare, Piscataway, N.J.) at 25° C. using an anti-Fc capture assay approach. Binding kinetic measurements were made in the assay buffer HBS-EP+: 10 mM Hepes, pH 7.4, 150 mM NaCl, 3 mM EDTA, 0.05% Tween 20). For example, approximately 8000 RU of anti-Fc (species specific) polyclonal antibody (Thermo Fisher Scientific Inc. Rockford, Ill.) diluted in 10 mM sodium acetate (pH 4.5) was directly immobilized across a CM5 research grade biosensor chip using a standard amine coupling kit according to manufacturer's instructions and procedures at 25 μg/ml. Unreacted moieties on the biosensor surface were blocked with ethanolamine. The test antibody to be captured as a ligand was diluted in running buffer to ˜0.5 μg/mL and injected over anti-Fc surface at a flow rate of 10 μL/min, CD98 binding and dissociation were observed under a continuous flow rate of 80 μL/min. Human and cynomolgus monkey CD98 ECDs, both with a C-terminal His-tag, are used for this study (Table 3). After each cycle the anti-Fc capture surface was regenerated using 10 mM Glycine-HCl, pH 1.5. During the assay, all measurements were referenced against the capture surface alone (i.e., with no captured test antibody) and buffer-only injections (no antigen) were used for double referencing. For kinetic analysis, rate equations derived from the 1:1 Langmuir binding model were fitted simultaneously, globally and with mass transfer term included to multiple referenced antigen binding curves using Biacore T100T200 Evaluation software.

[2] = target: T2, Cynomolgus monkey CD98 ECD with C-terminal His-tag (cynomolgus monkey, UniProt P08195 105-529 (human entry)); test: as above
T2 construct: also called cyCD98 ECD; recombinant cynomolgus monkey CD98 extracellular domain
T2 chain: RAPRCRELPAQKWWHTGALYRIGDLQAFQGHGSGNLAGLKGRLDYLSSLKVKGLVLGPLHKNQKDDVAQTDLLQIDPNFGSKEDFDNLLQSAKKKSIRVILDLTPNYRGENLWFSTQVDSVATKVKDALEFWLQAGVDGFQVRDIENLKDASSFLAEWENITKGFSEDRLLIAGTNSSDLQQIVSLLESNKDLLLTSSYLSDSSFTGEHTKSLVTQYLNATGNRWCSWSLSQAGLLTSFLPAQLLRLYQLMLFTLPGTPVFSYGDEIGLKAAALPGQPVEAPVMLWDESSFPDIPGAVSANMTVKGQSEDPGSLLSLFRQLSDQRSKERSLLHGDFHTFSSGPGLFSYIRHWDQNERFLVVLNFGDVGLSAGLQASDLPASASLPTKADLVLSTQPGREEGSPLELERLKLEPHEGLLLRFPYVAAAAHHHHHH
Experimental: as §1

[3] = target: T3, Human CD98 ECD with N-terminal His-tag (human, UniProt P08195 105-529); test: SPR (Biacore), recombinant CD98 ECD
T3 construct: The entry includes the linker and the polyhistidine tag; also called huCD98 ECD
T3 sequence: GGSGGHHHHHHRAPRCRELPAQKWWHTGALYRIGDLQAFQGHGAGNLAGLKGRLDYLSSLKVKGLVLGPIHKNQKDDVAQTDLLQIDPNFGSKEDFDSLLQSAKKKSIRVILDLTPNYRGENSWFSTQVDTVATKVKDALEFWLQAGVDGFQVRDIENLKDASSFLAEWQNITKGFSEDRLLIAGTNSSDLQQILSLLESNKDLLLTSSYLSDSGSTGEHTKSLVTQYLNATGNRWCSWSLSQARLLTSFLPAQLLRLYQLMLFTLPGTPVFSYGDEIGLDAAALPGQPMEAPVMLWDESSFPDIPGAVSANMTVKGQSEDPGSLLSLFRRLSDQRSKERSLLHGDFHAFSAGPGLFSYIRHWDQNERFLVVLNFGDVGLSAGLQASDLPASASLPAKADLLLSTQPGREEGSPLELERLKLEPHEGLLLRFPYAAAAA

[4] = target: T4, Cynomolgus monkey CD98 ECD with C-terminal His-tag (SEQ ID NO: 127) (cynomolgus monkey, UniProt P08195 105-529 (human entry)); test: SPR (Biacore), recombinant CD98 ECD
T4 construct: The entry includes the linker and the polyhistidine tag; also called cyCD98 ECD
T4 chain: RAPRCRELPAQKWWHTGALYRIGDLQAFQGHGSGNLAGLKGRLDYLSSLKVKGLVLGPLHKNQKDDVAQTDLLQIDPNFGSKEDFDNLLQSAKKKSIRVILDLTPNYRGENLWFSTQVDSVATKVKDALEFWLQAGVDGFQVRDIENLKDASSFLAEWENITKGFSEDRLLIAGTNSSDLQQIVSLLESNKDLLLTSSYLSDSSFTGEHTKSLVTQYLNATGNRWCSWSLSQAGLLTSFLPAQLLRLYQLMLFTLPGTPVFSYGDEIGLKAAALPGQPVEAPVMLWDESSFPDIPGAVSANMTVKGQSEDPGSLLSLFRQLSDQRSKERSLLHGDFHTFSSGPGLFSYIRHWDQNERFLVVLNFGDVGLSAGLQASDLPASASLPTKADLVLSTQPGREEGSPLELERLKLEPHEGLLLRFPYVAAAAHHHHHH

Row | Binder | Kd [1] | koff [1] | kon [1] | Kd [2] | koff [2] | kon [2] | Kd [3] | koff [3] | kon [3] | Kd [4] | koff [4] | kon [4]
1 | Anti-CD98 murine hybridoma antibody Ab4 (antibody, V domains shown) VH: EVKLVESGGGLVQPGGSLRLSCTTSGFTFTDYYMSWVRQPPGKALEWLGFIRNKATIYTTEYSASVKGRFTISRDNSQSILYLQMNTLRAEDSATYYCARASYGNSEGWFAYWGQGTLVTVSA VL: not shown | 0.83 nM | 3.7e-05 s⁻¹ | 44000 M⁻¹ s⁻¹ | 1.8 nM | 1.7e-05 s⁻¹ | 9700 M⁻¹ s⁻¹ |  |  |  |  |  | 
2 | Anti-CD98 murine hybridoma antibody Ab2 (antibody, V domains shown) VH: EVKLVESGGGLVQPGGSLRLSCATSGFNFTDYYMSWVRQPPGKALEWLGFIRNKANGYTTEYSASVKGRFTISRDDSQSILYLQMNTLRAEDSATYYCARASYGNSEGWFAYWGQGTLVTVSA VL: not shown | 1.1 nM | 8.1e-05 s⁻¹ | 73000 M⁻¹ s⁻¹ | 37 nM | 0.00086 s⁻¹ | 24000 M⁻¹ s⁻¹ |  |  |  |  |  | 
3 | Anti-CD98 murine hybridoma antibody Ab5 (antibody, V domains shown) VH: EVKLVESGGGLVQPGGSLRLSCATSGFTFTDYYMTWVRQPPGKALEWLGFIRNKANGYTTEYSASVKGRFTISRDNSLSILYLQMNTLRAEDSATYYCARASYVNSEGWFAYWGQGTLVTVSA VL: DIVMSQSPSSLAVSVGEKVTMSCKSSQSLLYSSNQKNYLAWYQQKLGQSPKLLIYWASTRESGVPDRFTGSGSGTDFTLTISSVKAEDLAVYYCQHYYSYPRTFGGGTKLEIK | 2.2 nM | 0.00012 s⁻¹ | 52000 M⁻¹ s⁻¹ | 11 nM | 0.00022 s⁻¹ | 21000 M⁻¹ s⁻¹ |  |  |  |  |  | 
4 | Anti-CD98 murine hybridoma antibody Ab3 (antibody, V domains shown) VH: EVKLVESGGGLVQPGNSLRLSCATSGFTFIDYYMSWVRQSPGKALEWLGFIRNKANGYTTEYSASVKGRFTISRDNSQSILYLQMDTLRAEDSATYYCTRDRPAWFVYWGQGTLVTVSA VL: DIVMSQSPSSLAVSVGEKVTMSCKSSQSLLYSSNQKNYLAWYQQKPGQSPKLLIYWASTRESGVPDRFTGSGSGTDFTLTFSSVRAEDLAVYYCQQYYSYPYTFGGGTKLEIK | 15 nM | 0.003 s⁻¹ | 200000 M⁻¹ s⁻¹ | 30 nM | 0.0012 s⁻¹ | 38000 M⁻¹ s⁻¹ |  |  |  |  |  | 
5 | Anti-CD98 rat hybridoma antibody Ab7 (antibody, V domains shown) VH: QVQLKESGPGLVQPSQTLSLTCTVSGFSLSTYGVIWVRQPPGKGLEWMGVIWANGNTNYNSTLKSRLSISRDTSKSQVYLKMNSLQTEDTATYYCARHYYDGTYYYGYFDYWGQGVMVTVSS VL: DIVMTQTPSSQAVSAGEKVTMNCKSSQSLLYSENKKNYLAWYQQKPGQSPKLLIYWASTRESGVPDRFIGSGSGTDFTLTISSVQAEDLAVYYCQQYYYFPYTFGPGTKLELK | 0.76 nM | 0.00015 s⁻¹ | 200000 M⁻¹ s⁻¹ | 3 nM | 0.00027 s⁻¹ | 91000 M⁻¹ s⁻¹ |  |  |  |  |  | 
6 | Anti-CD98 rat hybridoma antibody Ab6 (antibody, V domains shown) VH: QVQLKESGPGLAQPSQTLSLTCTVSGFSLSTYGVIWLRQPPGKGLEWMGVIWTNGNTNYNSTLKSRLSISRDTSESQVYLQMNSLQTEDTATYYCARHYYDGAYYYGYFDYWGQGVMVTVSS VL: DIVMTQTPSSQAVSAGEKVTMSCKSSQSLLYSENKKNYLAWYQQKPGQSPKLLIYWASTRESGVPDRFIGSGSGTDFTLTISSVQAEDLAVYYCQQYYYFPYTFGAGTKLELK | 1.1 nM | 0.00016 s⁻¹ | 150000 M⁻¹ s⁻¹ | 5.9 nM | 0.00037 s⁻¹ | 62000 M⁻¹ s⁻¹ |  |  |  |  |  | 
7 | Anti-CD98 rat hybridoma antibody Ab9 (antibody, V domains shown) VH: QVQLKESGPGLVQPSQTLSLTCAVSGFSLSNYGVIWVRQPPGKGLEWMAVIWTNGNTNYNSTLKSRLSISRDTSKSQVYLKMNSLQTEDTATYYCARHYYDGTYYYGYFDYWGQGVMVTVSS VL: DIVMTQTPSSQAVSAGEKVTMSCKSSQSLLYTENKKNYLAWYQQKPGQSPKLLIYWASTRESGVPDRFMGSGSGTDFTLTISSVQAEDLAVYYCQQYYYFPYMFGAGTKLELK | 1.2 nM | 0.00015 s⁻¹ | 130000 M⁻¹ s⁻¹ | 9.9 nM | 0.00051 s⁻¹ | 51000 M⁻¹ s⁻¹ |  |  |  |  |  | 
8 | Anti-CD98 rat hybridoma antibody Ab11 (antibody, V domains shown) VH: EVQLVESGGGLVQPGRSLKLSCAASGFTFSDYAMAWVRQAPKKGLEWVAGIIYDGRGTYYRDSVKGRFTISRDNAKSTLYLQMDSLRSEDTATYYCARQGDGTYYYWGYFDYWGQGVMVTVSS VL: DIVMTQSPSSLAVSAGETVTINCRSSQSLLSSGNQKNYLAWYQQKPGQSPKLLIYWASTRQSGVPDRFIGSGSGTDFTLTISSVQAEDLAIYYCQQYYDTPYTFGAGTKLELK | 18 nM | 0.0012 s⁻¹ | 65000 M⁻¹ s⁻¹ | 72 nM | 0.0017 s⁻¹ | 24000 M⁻¹ s⁻¹ |  |  |  |  |  | 
9 | Anti-CD98 rat hybridoma antibody Ab10 (antibody, V domains shown) VH: EVQLVESGGGLVQPGRSLKLSCAASGFTFSDYAMAWVRQAPKKSLEWVATIIYDGRGTYCRDSVKGRFTISRDNAKSTLYLQMDSLRSEDTATYYCARQGDGTYHYWGYFDYWGQGVMVTVSS VL: DIVMTQSPSSLAVSAGETVTINCKSSQSLLSSGNQKNYLAWYQQKPGQSPKLLIYWASTRQSGVPDRFIGSGSGTDFTLTISSVQAEDLAIYYCQQYYDTPYTFGAGTKVDLK | 2 nM | 0.00024 s⁻¹ | 130000 M⁻¹ s⁻¹ | 7.8 nM | 0.00049 s⁻¹ | 62000 M⁻¹ s⁻¹ |  |  |  |  |  | 
10 | Anti-CD98 rat hybridoma antibody Ab15 (antibody, V domains shown) VH: EVQLVESGGGLVQPGRSLKLSCAASGFTFSDYTMAWVRQAPKKGLEWVATIIYDGRGTYYRDSVKGRFTISRDNAKSTLYLQMDSLRSEDTATYYCARQSDGTYYYWGYFDYWGQGVMVTVSS VL: DIVMTQSPSSLAVSAGETVTINCKSSQSLLFSGNQKNYLAWYQQKPGQSPKLLIYWASTRQSGVPDRFIGSGSGTDFTLTIRSVQAEDLAIYYCQQYYDSPYTFGAGTKLELK | 0.68 nM | 5.3e-05 s⁻¹ | 77000 M⁻¹ s⁻¹ | 3.3 nM | 9.6e-05 s⁻¹ | 29000 M⁻¹ s⁻¹ |  |  |  |  |  | 
11 | huAb101 (antibody, V domains shown, Framework re-engineered humanized clone (parent huAb3v1), expressed as full-length IgG) VH: EVQLVESGGGLVKPGGSLRLSCATSGFTFIDYYMSWVRQAPGKGLEWLGFIRNKANRYTTEYSASVKGRFTISRDNSKSILYLQMNSLKTEDTAVYYCTRDRPAWFVYWGQGTLVTVSS VL: DIVMTQTPLSLPVTPGEPASISCKSSQSLLYSSNQKNYLAWYLQKPGQSPQLLIYWASTRESGVPDRFSGSGSGTDFTLKISRVEAEDVGVYYCQQYYSYPYTFGGGTKVEIK |  |  |  |  |  |  | 6.1 nM | 0.0018 s⁻¹ | 290000 M⁻¹ s⁻¹ | 23 nM | 0.00067 s⁻¹ | 30000 M⁻¹ s⁻¹
